B1: 6E7 antibody affinity modulation variant V62 (antibody, V domains shown)
VH: EVQLVQSGAEVKKPGESLKISCKGSGYSFGSYWIAWVRQMPGKGLEWMGIIYPGDSDTRYAPSFQGQVTISADKSISTAYLQWSSLKASDTAMYFCARQRTFYYDSSGYFDYWGQGTLVTVSS
VL: DIQMTQSPSSVSASVGDRVTITCRASQGISSWLAWYQQKPGKAPKLLIYAASSLQRGVPSRFSGSGSGTDFTLTISSLQPEDFATYFCGQADSFPRTFGQGTKLEIK
B2: 6E7 antibody affinity modulation variant V26 (antibody, V domains shown)
VH: B1 VH with G30T, A35G, I50T, A61S, F102M, G108D, Y112A
VL: B1 VL with G89Q, F94Y
B3: 6E7 antibody affinity modulation variant V64 (antibody, V domains shown)
VH: B1 VH with G30Q, A61S, Q99G, G108D
VL: B1 VL with Q55A, R56N, G89Q, F94Y
B4: 6E7 antibody affinity modulation variant V75 (antibody, V domains shown)
VH: B1 VH with G30T, A61S, Q99G, G108D
VL: B1 VL with R56A, G89Q, F94Y
B5: 6E7 antibody affinity modulation variant V87 (antibody, V domains shown)
VH: B1 VH with G30R, T58V, A61S, S63D, Q99S, G108D
VL: B1 VL with R56W, G89Q
B6: 6E7 antibody affinity modulation variant V25 (antibody, V domains shown)
VH: B1 VH with I50L, A61S, Q99S, G108D
VL: B1 VL with Q55A, R56N, G89Q, F94M
B7: 6E7 antibody affinity modulation variant V5 (antibody, V domains shown)
VH: B1 VH with G30T, I50T, A61S, G108D
VL: B1 VL with R56N, G89Q, F94H
B8: 6E7 antibody affinity modulation variant V14 (antibody, V domains shown)
VH: B1 VH with S56Q, A61S, Q99G, G108D
VL: B1 VL with S53R, R56N, G89Q
B9: 6E7 antibody affinity modulation variant V74 (antibody, V domains shown)
VH: B1 VH with G30A, T58V, A61S, Q99G, G108D
VL: B1 VL with R56L, G89Q
B10: 6E7 antibody affinity modulation variant V16 (antibody, V domains shown)
VH: B1 VH with F29M, G30T, S56G, A61S, Q99S, G108D
VL: B1 VL with S53N, R56N, G89Q
B11: 6E7 antibody affinity modulation variant V76 (antibody, V domains shown)
VH: B1 VH with A61S, S63E, G108D, F110S
VL: B1 VL with R56K, T69R, G89Q
B12: 6E7 antibody affinity modulation variant V3 (antibody, V domains shown)
VH: B1 VH with G30A, A61S, G66D, Q99G, G108D
VL: B1 VL with L54R, R56N, G89Q, S93R
B13: 6E7 antibody affinity modulation variant V65 (antibody, V domains shown)
VH: B1 VH with G30T, A61S, Q99S, G108D
VL: B1 VL with R56N, G89Q
B14: 6E7 antibody affinity modulation variant V2 (antibody, V domains shown)
VH: B1 VH with Y27S, G30T, S56G, A61S, Q99S, G108D
VL: B1 VL with L54R, R56N, G89Q, S93R
B15: 6E7 antibody affinity modulation variant V89 (antibody, V domains shown)
VH: B1 VH with G30T, A61S, G108D
VL: B1 VL with R56N, G89Q, F94H
B16: 6E7 antibody affinity modulation variant V85 (antibody, V domains shown)
VH: B1 VH with G30R, I50T, A61S, Q99S, G108D
VL: B1 VL with L54R, R56N, G89Q
B17: 6E7 antibody affinity modulation variant V13 (antibody, V domains shown)
VH: B1 VH with A61S, P62A, Q99G, G108D
VL: B1 VL with R56G, G89Q, F94M
B18: 6E7 antibody affinity modulation variant V84 (antibody, V domains shown)
VH: B1 VH with S28G, G30T, A61S, G108D, F110S
VL: B1 VL with A50G, R56N, G89Q
B19: 6E7 antibody affinity modulation variant V88 (antibody, V domains shown)
VH: B1 VH with A61S, G108D
VL: B1 VL with S53R, G89Q, F94S
B20: 6E7 antibody affinity modulation variant V63 (antibody, V domains shown)
VH: B1 VH with G30R, A61S, Q99S, G108D
VL: B1 VL with G89Q, S93R
B21: 6E7 antibody affinity modulation variant V15 (antibody, V domains shown)
VH: B1 VH with G30A, I50T, A61S, Q99S, G108D
VL: B1 VL with S53W, R56N, G89Q, F94Y
B22: 6E7 antibody affinity modulation variant V73 (antibody, V domains shown)
VH: B1 VH with A61S, S63G, Q99G, G108D
VL: B1 VL with L54R, R56N, G89Q, F94Y
B23: 6E7 antibody affinity modulation variant V86 (antibody, V domains shown)
VH: B1 VH with I34L, A61S, Q65E, Q99S, G108D
VL: B1 VL with L54R, R56N, G89Q
B24: 6E7 antibody affinity modulation variant V4 (antibody, V domains shown)
VH: B1 VH with Y60V, A61S, Q99S, G108D
VL: B1 VL with S53R, R56N, G89Q, F94Y
B25: 6E7 antibody affinity modulation variant V24 (antibody, V domains shown)
VH: B1 VH with G30T, T58V, A61S, Q99S, G108D
VL: B1 VL with R56K, G89Q, R96H
B26: 6E7 antibody affinity modulation variant V77 (antibody, V domains shown)
VH: B1 VH with G30T, A61S, G108D
VL: B1 VL with L54R, R56N, G89Q
B27: 6E7 antibody affinity modulation variant V17 (antibody, V domains shown)
VH: B1 VH with A61S, Q99S, G108D
VL: B1 VL with L54R, R56N, G89Q, F94S

Positions count from the first letter of the chain named.

In the first assay the target is T1, human TREM2 (triggering receptor expressed on myeloid cells 2) (human) (UniProt Q9NZC2).
T1 sequence (looked up): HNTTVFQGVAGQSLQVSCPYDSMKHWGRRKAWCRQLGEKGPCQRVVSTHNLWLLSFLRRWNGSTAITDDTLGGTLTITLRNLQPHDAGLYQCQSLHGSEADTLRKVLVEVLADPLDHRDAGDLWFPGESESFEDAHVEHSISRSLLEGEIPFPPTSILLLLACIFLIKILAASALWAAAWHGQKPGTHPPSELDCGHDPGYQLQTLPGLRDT
The assay is described as follows: 2nd screen, 2 nM Ab.
Regarding B1, the Binding Signal (fold over 6E7 parental antibody) was 1.87 fold.

With B2, the Binding Signal (fold over 6E7 parental antibody) turned out to be 2.83 fold.

On to B3, for which the Binding Signal (fold over 6E7 parental antibody) worked out at 4.88 fold.

Consider B4, for which the Binding Signal (fold over 6E7 parental antibody) was 3.74 fold.

Turning to B5, the Binding Signal (fold over 6E7 parental antibody) was 4.86 fold.

Consider B6, for which the Binding Signal (fold over 6E7 parental antibody) is 3.15 fold.

Regarding B7, the Binding Signal (fold over 6E7 parental antibody) stood at 1.25 fold.

With B8, the Binding Signal (fold over 6E7 parental antibody) came to 2.57 fold.

With B9, the Binding Signal (fold over 6E7 parental antibody) came to 2.54 fold.

As for B10, the Binding Signal (fold over 6E7 parental antibody) worked out at 3.57 fold.

Turning to B11, the Binding Signal (fold over 6E7 parental antibody) worked out at 4.34 fold.

As to B12, the Binding Signal (fold over 6E7 parental antibody) was 1.95 fold.

For B13, the Binding Signal (fold over 6E7 parental antibody) turned out to be 1.29 fold.

Regarding B14, the Binding Signal (fold over 6E7 parental antibody) came to 2.23 fold.

For the molecule B15, the Binding Signal (fold over 6E7 parental antibody) stood at 0.94 fold.

Turning to B16, the Binding Signal (fold over 6E7 parental antibody) was 5.41 fold.

In the case of B17, the Binding Signal (fold over 6E7 parental antibody) was 1.15 fold.

Turning to B18, the Binding Signal (fold over 6E7 parental antibody) came to 1.45 fold.

Take B19: the Binding Signal (fold over 6E7 parental antibody) turned out to be 5.57 fold.

As to B20, the Binding Signal (fold over 6E7 parental antibody) turned out to be 4.91 fold.

For the molecule B21, the Binding Signal (fold over 6E7 parental antibody) is 4.72 fold.

Regarding B22, the Binding Signal (fold over 6E7 parental antibody) turned out to be 4.17 fold.

Take B23: the Binding Signal (fold over 6E7 parental antibody) is 5.17 fold.

As to B24, the Binding Signal (fold over 6E7 parental antibody) stood at 5.88 fold.

Take B25: the Binding Signal (fold over 6E7 parental antibody) was found to be 1.42 fold.

As to B26, the Binding Signal (fold over 6E7 parental antibody) was found to be 0.83 fold.

With B27, the Binding Signal (fold over 6E7 parental antibody) amounted to 4.22 fold.

The next assay concerns the target T1, human TREM2 (triggering receptor expressed on myeloid cells 2) (human). The assay is described as follows: 1st screen, 10 nM Ab.
Turning to B1, the Binding Signal (fold over 6E7 parental antibody) stood at 2.49 fold.

With B2, the Binding Signal (fold over 6E7 parental antibody) came out at 3.57 fold.

Turning to B3, the Binding Signal (fold over 6E7 parental antibody) was found to be 5.41 fold.

Regarding B4, the Binding Signal (fold over 6E7 parental antibody) came out at 4.64 fold.

For the molecule B5, the Binding Signal (fold over 6E7 parental antibody) stood at 3.84 fold.

Turning to B6, the Binding Signal (fold over 6E7 parental antibody) amounted to 4.23 fold.

For the molecule B7, the Binding Signal (fold over 6E7 parental antibody) is 2.73 fold.

B8: the Binding Signal (fold over 6E7 parental antibody) is 4.71 fold.

For the molecule B9, the Binding Signal (fold over 6E7 parental antibody) is 3.94 fold.

Turning to B10, the Binding Signal (fold over 6E7 parental antibody) worked out at 4.01 fold.

For the molecule B11, the Binding Signal (fold over 6E7 parental antibody) is 4.57 fold.

Turning to B12, the Binding Signal (fold over 6E7 parental antibody) was determined as 1.97 fold.

On to B13, for which the Binding Signal (fold over 6E7 parental antibody) was found to be 2.05 fold.

For the molecule B14, the Binding Signal (fold over 6E7 parental antibody) stood at 2.55 fold.

As to B15, the Binding Signal (fold over 6E7 parental antibody) is 1.33 fold.

In the case of B16, the Binding Signal (fold over 6E7 parental antibody) worked out at 5.41 fold.

Take B17: the Binding Signal (fold over 6E7 parental antibody) turned out to be 1.31 fold.

B18: the Binding Signal (fold over 6E7 parental antibody) stood at 1.44 fold.

For the molecule B19, the Binding Signal (fold over 6E7 parental antibody) came out at 4.92 fold.

As to B20, the Binding Signal (fold over 6E7 parental antibody) worked out at 3.76 fold.

For the molecule B21, the Binding Signal (fold over 6E7 parental antibody) was 5.23 fold.

Turning to B22, the Binding Signal (fold over 6E7 parental antibody) worked out at 5.12 fold.

With B23, the Binding Signal (fold over 6E7 parental antibody) stood at 4.8 fold.

With B24, the Binding Signal (fold over 6E7 parental antibody) came to 6 fold.

Regarding B25, the Binding Signal (fold over 6E7 parental antibody) is 2.64 fold.

In the case of B26, the Binding Signal (fold over 6E7 parental antibody) was 1.43 fold.

B27: the Binding Signal (fold over 6E7 parental antibody) worked out at 5.37 fold.

For the next assay the target is unchanged. The experiment in a line: 2nd screen, 10 nM Ab.
For B1, the Binding Signal (fold over 6E7 parental antibody) came to 2.89 fold.

As for B2, the Binding Signal (fold over 6E7 parental antibody) amounted to 3.47 fold.

With B3, the Binding Signal (fold over 6E7 parental antibody) was 5.48 fold.

For the molecule B4, the Binding Signal (fold over 6E7 parental antibody) amounted to 4.52 fold.

As for B5, the Binding Signal (fold over 6E7 parental antibody) was 3.93 fold.

On to B6, for which the Binding Signal (fold over 6E7 parental antibody) turned out to be 4.7 fold.

On to B7, for which the Binding Signal (fold over 6E7 parental antibody) is 2.84 fold.

On to B8, for which the Binding Signal (fold over 6E7 parental antibody) stood at 4.64 fold.

B9: the Binding Signal (fold over 6E7 parental antibody) was 4.01 fold.

Consider B10, for which the Binding Signal (fold over 6E7 parental antibody) turned out to be 4.04 fold.

Take B11: the Binding Signal (fold over 6E7 parental antibody) stood at 4.93 fold.

On to B12, for which the Binding Signal (fold over 6E7 parental antibody) is 2.24 fold.

B13: the Binding Signal (fold over 6E7 parental antibody) is 2.75 fold.

Turning to B14, the Binding Signal (fold over 6E7 parental antibody) was 2.9 fold.

For B15, the Binding Signal (fold over 6E7 parental antibody) is 1.46 fold.

As for B16, the Binding Signal (fold over 6E7 parental antibody) amounted to 5.37 fold.

B17: the Binding Signal (fold over 6E7 parental antibody) stood at 1.35 fold.

For B18, the Binding Signal (fold over 6E7 parental antibody) came to 1.62 fold.

Consider B19, for which the Binding Signal (fold over 6E7 parental antibody) amounted to 5.3 fold.

As for B20, the Binding Signal (fold over 6E7 parental antibody) turned out to be 3.71 fold.

For B21, the Binding Signal (fold over 6E7 parental antibody) stood at 4.78 fold.

On to B22, for which the Binding Signal (fold over 6E7 parental antibody) is 5.44 fold.

In the case of B23, the Binding Signal (fold over 6E7 parental antibody) was 5.02 fold.

B24: the Binding Signal (fold over 6E7 parental antibody) stood at 5.51 fold.

As for B25, the Binding Signal (fold over 6E7 parental antibody) was found to be 2.9 fold.

As to B26, the Binding Signal (fold over 6E7 parental antibody) is 1.38 fold.

B27: the Binding Signal (fold over 6E7 parental antibody) was found to be 5.51 fold.

Values taken from patent US20250019437A1.
